The values that follow come from patent publication US20240092890A1 (JUNTENDO EDUCATIONAL FOUNDATION, published 2024).

In assay [1] the target is T1, protein having an Fc region and a His-tag added to the N-terminus of SEQ ID NO: 1.
T1 construct: also called mutant CALR protein (antigen of the BLItz measurement); not shown: Fc region and His-tag at the N-terminus
T1 chain: RRMMRTKMRMRRM
The assay can be described thus: BLItz biolayer interferometry, Fc/His-SEQ ID NO: 1 protein on the biosensor. As for the experimental part:
As another method, measurements were performed using the molecular interaction analysis system BLItz (ForteBio), which applies biolayer interferometry […]. Specifically, a protein having an Fc region and a His-tag added to the N-terminus of SEQ ID NO: 1 was immobilized at a concentration of 0.1 mg/mL using the Anti-Penta-HIS or ProteinA biosensor (ForteBio). Subsequently, the antibodies 1 to 114 made were prepared at a concentration of 500, 100, and 50 nM and reacted to acquire the dissociation constant.
(BLI is a label-free optical method that tracks binding on a fibre tip over time.)

The target of assay [2] is T2, Ins 5 type mutant CALR protein on UT-7/TPO CALR Ins 5 cells (UniProt P27797 18-417).
T2 sequence (looked up): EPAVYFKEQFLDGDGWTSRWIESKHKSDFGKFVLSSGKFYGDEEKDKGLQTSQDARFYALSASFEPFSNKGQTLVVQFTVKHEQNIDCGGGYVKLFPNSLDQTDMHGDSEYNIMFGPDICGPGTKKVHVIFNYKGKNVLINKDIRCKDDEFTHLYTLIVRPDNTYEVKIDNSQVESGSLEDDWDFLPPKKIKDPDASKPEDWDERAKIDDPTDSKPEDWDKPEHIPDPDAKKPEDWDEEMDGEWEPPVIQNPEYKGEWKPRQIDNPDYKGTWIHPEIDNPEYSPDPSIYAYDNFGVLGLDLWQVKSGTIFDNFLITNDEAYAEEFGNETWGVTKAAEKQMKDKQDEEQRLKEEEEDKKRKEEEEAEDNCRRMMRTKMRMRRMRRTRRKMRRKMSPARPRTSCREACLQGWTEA
The assay can be described thus: cell-based or functional assay.

Residue numbers refer to the chain shown, from its start.

As usually defined, the Kd is a measure of binding affinity in units of concentration. A low value points to tighter binding.

B1: Antibody 28 (bispecific antibody)
chain 1: QVTLKESGPVLVKPTETLTLTCTVSGYSITSDYAWNWIRQPPGKALEWLAYISYSGSTSYNPSLKSRLSITKDTSKSQVVLTMTNMDPVDTATYYCARDPPYYYGSWGQGTTVTVSSASTKGPSVFPLAPSSKSTSGGTAALGCLVKDYFPEPVTVSWNSGALTSGVHTFPAVLQSSGLYSLSSVVTVPSSSLGTQTYICNVNHKPSNTKVDKRVEPKSCGGGGSQVQLVQSGGGVVQPGRSLRLSCKASGYTFTRYTMHWVRQAPGKGLEWIGYINPSRGYTNYNQKVKDRFTISRDNSKNTAFLQMDSLRPEDTGVYFCARYYDDHYSLDYWGQGTPVTVSSGGGGSGGGGSGGGGSDIQMTQSPSSLSASVGDRVTITCSASSSVSYMNWYQQTPGKAPKRWIYDTSKLASGVPSRFSGSGSGTDYTFTISSLQPEDIATYYCQQWSSNPFTFGQGTKLQITRHHHHHH
chain 2: DVVMTQSPLSLPVTLGQPASISCKSSQSLLDSDGKTYLNWLQQRPGQSPRRLIYLVSKLDSGVPDRFSGSGSGTDFTLKISRVEAEDVGVYHCWQGTHFPYTFGGGTKVEIKRTVAAPSVFIFPPSDEQLKSGTASVVCLLNNFYPREAKVQWKVDNALQSGNSQESVTEQDSKDSTYSLSSTLTLSKADYEKHKVYACEVTHQGLSSPVTKSFNRGEC
notes: format not described
In turn, B1 had a Kd in assay [1] of 1480 µM. Also, in assay [2], the “EC50 of cytotoxic activity (calcein release, T-LAK effector cells)” value (shortened to “EC50 … (calcein release, T-LAK effector cells)”) was 5430 pM.

B2: Antibody 29 (bispecific antibody)
chain 1: QVQLVQSGAEVKKPGASVKVSCKASGYSFTGYYIHWVRQAPGQGLEWIGYISAYNGASSYNQKFKGRATFTVDTSISTAYMELSRLRSDDTAVYYCASSMDYWGQGTLVTVSSASTKGPSVFPLAPSSKSTSGGTAALGCLVKDYFPEPVTVSWNSGALTSGVHTFPAVLQSSGLYSLSSVVTVPSSSLGTQTYICNVNHKPSNTKVDKRVEPKSCGGGGSQVQLVQSGGGVVQPGRSLRLSCKASGYTFTRYTMHWVRQAPGKGLEWIGYINPSRGYTNYNQKVKDRFTISRDNSKNTAFLQMDSLRPEDTGVYFCARYYDDHYSLDYWGQGTPVTVSSGGGGSGGGGSGGGGSDIQMTQSPSSLSASVGDRVTITCSASSSVSYMNWYQQTPGKAPKRWIYDTSKLASGVPSRFSGSGSGTDYTFTISSLQPEDIATYYCQQWSSNPFTFGQGTKLQITRHHHHHH
chain 2: B1 chain 2 with R50K, G105Q, V109L
notes: format not described
On to B2, for which the dissociation constant Kd in assay [1] was 5.7 µM. Further, the “EC50 … (calcein release, T-LAK effector cells)” value in assay [2] is 634 pM.

B3: Antibody 23 (bispecific antibody)
heavy: QVQLQQSGAELVKPGSSVKISCKASGYTFTRNFIHWIKQQPGNGLEWIGWIFPGDGDTEYNQKFNGKATLTADKSSSTAYMQLSSLTSEDSAVYFCARGNYNYEYFDYWGQGVMVTVSSASTKGPSVFPLAPSSKSTSGGTAALGCLVKDYFPEPVTVSWNSGALTSGVHTFPAVLQSSGLYSLSSVVTVPSSSLGTQTYICNVNHKPSNTKVDKRVEPKSCHHHHHH
light: QVQLVQSGGGVVQPGRSLRLSCKASGYTFTRYTMHWVRQAPGKGLEWIGYINPSRGYTNYNQKVKDRFTISRDNSKNTAFLQMDSLRPEDTGVYFCARYYDDHYSLDYWGQGTPVTVSSGGGGSGGGGSGGGGSDIQMTQSPSSLSASVGDRVTITCSASSSVSYMNWYQQTPGKAPKRWIYDTSKLASGVPSRFSGSGSGTDYTFTISSLQPEDIATYYCQQWSSNPFTFGQGTKLQITRGGGGSDIQMTQSPASLSASLGETVSIECLASEDIYSYLAWYQQKPGKSPQLLIFAANRLQDGVPSRFSGSGSGTQFSLKISGMQPEDEGDYFCLQGSKFPYTFGPGTKLELNRTVAAPSVFIFPPSDEQLKSGTASVVCLLNNFYPREAKVQWKVDNALQSGNSQESVTEQDSKDSTYSLSSTLTLSKADYEKHKVYACEVTHQGLSSPVTKSFNRGEC
notes: B3 Fab with hOKT3 scFv fused to the light chain N-terminus
Take B3: the dissociation constant Kd in assay [1] is 0.00679 µM. Besides, in assay [2], the “EC50 … (calcein release, T-LAK effector cells)” value was 370 pM.

B4: Antibody 27 (bispecific antibody)
heavy: QVQLQQSGAELVKPGSSVKISCKASGYTFTRNFIHWIKQQPGNGLEWIGWIFPGDGDTEYNQKFNGKATLTADKSSSTAYMQLSSLTSEDSAVYFCARGNYNYEYFDYWGQGVMVTVSSASTKGPSVFPLAPSSKSTSGGTAALGCLVKDYFPEPVTVSWNSGALTSGVHTFPAVLQSSGLYSLSSVVTVPSSSLGTQTYICNVNHKPSNTKVDKRVEPKSCGGGGSQVQLVQSGGGVVQPGRSLRLSCKASGYTFTRYTMHWVRQAPGKGLEWIGYINPSRGYTNYNQKVKDRFTISRDNSKNTAFLQMDSLRPEDTGVYFCARYYDDHYSLDYWGQGTPVTVSSGGGGSGGGGSGGGGSDIQMTQSPSSLSASVGDRVTITCSASSSVSYMNWYQQTPGKAPKRWIYDTSKLASGVPSRFSGSGSGTDYTFTISSLQPEDIATYYCQQWSSNPFTFGQGTKLQITRHHHHHH
light: B3 light
notes: B3 Fab with hOKT3 scFv at the heavy chain C-terminus and at the light chain N-terminus
In assay [1], B4 yielded a Kd of 0.0136 µM. Moreover, the “EC50 … (calcein release, T-LAK effector cells)” value in assay [2] is 36 pM.

B5: Antibody 24 (bispecific antibody, human IgG1, kappa, L234A L235A)
heavy: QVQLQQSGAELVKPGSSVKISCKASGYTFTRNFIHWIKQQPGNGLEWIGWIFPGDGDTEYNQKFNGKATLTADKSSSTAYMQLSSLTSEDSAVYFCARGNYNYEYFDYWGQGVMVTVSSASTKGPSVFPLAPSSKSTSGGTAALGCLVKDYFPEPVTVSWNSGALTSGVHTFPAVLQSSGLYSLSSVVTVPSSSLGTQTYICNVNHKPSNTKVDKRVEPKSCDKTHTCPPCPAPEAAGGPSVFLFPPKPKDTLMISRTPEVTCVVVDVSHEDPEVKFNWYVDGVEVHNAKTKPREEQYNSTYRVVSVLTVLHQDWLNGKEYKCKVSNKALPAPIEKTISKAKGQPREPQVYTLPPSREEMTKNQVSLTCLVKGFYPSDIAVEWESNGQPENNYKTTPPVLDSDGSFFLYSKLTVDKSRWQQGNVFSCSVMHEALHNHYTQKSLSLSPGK
light: B3 light
notes: B3 IgG with hOKT3 scFv fused to the light chain N-terminus
The molecule B5 came in with a dissociation constant Kd in assay [1] of 0.000531 µM. Also, in assay [2], the “EC50 … (calcein release, T-LAK effector cells)” value was 138 pM.

B6: Antibody 26 (bispecific antibody)
heavy: QVQLVQSGGGVVQPGRSLRLSCKASGYTFTRYTMHWVRQAPGKGLEWIGYINPSRGYTNYNQKVKDRFTISRDNSKNTAFLQMDSLRPEDTGVYFCARYYDDHYSLDYWGQGTPVTVSSGGGGSGGGGSGGGGSDIQMTQSPSSLSASVGDRVTITCSASSSVSYMNWYQQTPGKAPKRWIYDTSKLASGVPSRFSGSGSGTDYTFTISSLQPEDIATYYCQQWSSNPFTFGQGTKLQITRGGGGSQVQLQQSGAELVKPGSSVKISCKASGYTFTRNFIHWIKQQPGNGLEWIGWIFPGDGDTEYNQKFNGKATLTADKSSSTAYMQLSSLTSEDSAVYFCARGNYNYEYFDYWGQGVMVTVSSASTKGPSVFPLAPSSKSTSGGTAALGCLVKDYFPEPVTVSWNSGALTSGVHTFPAVLQSSGLYSLSSVVTVPSSSLGTQTYICNVNHKPSNTKVDKRVEPKSCHHHHHH
light: B3 light
notes: B3 Fab with hOKT3 scFv fused to the N-termini of both the heavy and the light chain
Consider B6, for which, in assay [1], binding was put at a Kd of 0.0123 µM. In addition, in assay [2], the “EC50 … (calcein release, T-LAK effector cells)” value is 39 pM.

B7: Antibody 22 (bispecific antibody)
heavy: QVQLVQSGGGVVQPGRSLRLSCKASGYTFTRYTMHWVRQAPGKGLEWIGYINPSRGYTNYNQKVKDRFTISRDNSKNTAFLQMDSLRPEDTGVYFCARYYDDHYSLDYWGQGTPVTVSSGGGGSGGGGSGGGGSDIQMTQSPSSLSASVGDRVTITCSASSSVSYMNWYQQTPGKAPKRWIYDTSKLASGVPSRFSGSGSGTDYTFTISSLQPEDIATYYCQQWSSNPFTFGQGTKLQITRGGGGSQVQLQQSGAELVKPGSSVKISCKASGYTFTRNFIHWIKQQPGNGLEWIGWIFPGDGDTEYNQKFNGKATLTADKSSSTAYMQLSSLTSEDSAVYFCARGNYNYEYFDYWGQGVMVTVSSASTKGPSVFPLAPSSKSTSGGTAALGCLVKDYFPEPVTVSWNSGALTSGVHTFPAVLQSSGLYSLSSVVTVPSSSLGTQTYICNVNHKPSNTKVDKRVEPKSCAAAGGGQPREPQVYTLPPSREEMTKNQVSLTCLVKGFYPSDIAVEWESNGQPENNYKTTPPVLDSDGSFFLYSKLTVDKSRWQQGNVFSCSVMHEALHNHYTQKSLSLSPGK
light: DIQMTQSPASLSASLGETVSIECLASEDIYSYLAWYQQKPGKSPQLLIFAANRLQDGVPSRFSGSGSGTQFSLKISGMQPEDEGDYFCLQGSKFPYTFGPGTKLELNRTVAAPSVFIFPPSDEQLKSGTASVVCLLNNFYPREAKVQWKVDNALQSGNSQESVTEQDSKDSTYSLSSTLTLSKADYEKHKVYACEVTHQGLSSPVTKSFNRGEC
notes: hOKT3 scFv, B3 Fab heavy chain and CH3 domain in one polypeptide, with the B3 light chain
Turning to B7, in assay [1], the Kd was less than 1e-06 µM. Further, in assay [2], the “EC50 … (calcein release, T-LAK effector cells)” value is 101 pM.

B8: B3 chimeric antibody (antibody, human IgG1, kappa, L234A L235A)
heavy: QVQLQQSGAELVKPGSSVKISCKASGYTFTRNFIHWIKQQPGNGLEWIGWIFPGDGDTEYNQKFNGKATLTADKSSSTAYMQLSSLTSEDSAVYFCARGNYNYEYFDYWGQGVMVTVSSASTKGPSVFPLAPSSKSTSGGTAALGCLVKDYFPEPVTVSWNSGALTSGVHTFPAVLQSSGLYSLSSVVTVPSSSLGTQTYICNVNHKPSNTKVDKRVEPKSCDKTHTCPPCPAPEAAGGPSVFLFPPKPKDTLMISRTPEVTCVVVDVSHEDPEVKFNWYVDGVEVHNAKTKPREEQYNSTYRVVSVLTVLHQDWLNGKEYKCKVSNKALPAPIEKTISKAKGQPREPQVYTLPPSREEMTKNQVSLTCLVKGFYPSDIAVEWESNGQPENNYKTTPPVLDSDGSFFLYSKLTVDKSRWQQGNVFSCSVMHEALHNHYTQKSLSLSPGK
light: B7 light
notes: monospecific anti-mutant CALR antibody, no CD3 arm
As for B8, in assay [1], the Kd was less than 1e-06 µM. Also, the “EC50 … (calcein release, T-LAK effector cells)” value in assay [2] is greater than 10000 pM.

B9: Antibody 9 (bispecific antibody)
chain: QVQLQQSGAELVKPGSSVKISCKASGYTFTRNFIHWIKQQPGNGLEWIGWIFPGDGDTEYNQKFNGKATLTADKSSSTAYMQLSSLTSEDSAVYFCARGNYNYEYFDYWGQGVMVTVSSGGGGSGGGGSGGGGSDIQMTQSPASLSASLGETVSIECLASEDIYSYLAWYQQKPGKSPQLLIFAANRLQDGVPSRFSGSGSGTQFSLKISGMQPEDEGDYFCLQGSKFPYTFGPGTKLELNGGGGSQVQLVQSGGGVVQPGRSLRLSCKASGYTFTRYTMHWVRQAPGKGLEWIGYINPSRGYTNYNQKVKDRFTISRDNSKNTAFLQMDSLRPEDTGVYFCARYYDDHYSLDYWGQGTPVTVSSGGGGSGGGGSGGGGSDIQMTQSPSSLSASVGDRVTITCSASSSVSYMNWYQQTPGKAPKRWIYDTSKLASGVPSRFSGSGSGTDYTFTISSLQPEDIATYYCQQWSSNPFTFGQGTKLQITRHHHHHH
notes: B3 VH-VL scFv and hOKT3 VH-VL scFv in one polypeptide, no Fc
B9 returned a Kd in assay [1] of 0.00655 µM. Besides, the “EC50 … (calcein release, T-LAK effector cells)” value in assay [2] is 1530 pM.
